Results published in paper PMC2891831, “Insight into the Mechanisms of Adenovirus Capsid Disassembly from Studies of Defensin Neutralization” (PLoS Pathogens, 2010).
Entries after “also recorded” stand apart in the source; their conditions may differ.

How the values were obtained:
HAdV species B1 = experiment: Infection assay (hexon staining), HAdV species B1; format: cell-based, human adenovirus; settings: 15 µM HD5, A549 cells, hexon staining at ~48 h, vs. no defensin
Protocol: To determine whether sensitivity to α-defensins is a general property of HAdVs, serotypes representative of HAdV species A–F were tested for infectivity in the presence of 15 µM HD5 or HNP1 (Figure 1). Wild type HAdVs rather than vectors were used for these studies, and infectivity was assessed by staining for hexon production. […] These studies indicate that sensitivity to α-defensins is species specific. In addition, particular HAdV serotypes are not equally sensitive to all defensins, indicating defensin sequence specificity as well.
Figure 1 Sensitivity to neutralization by alpha-defensins is AdV species specific. HAdVs were incubated with 15 µM HD5 (A) or HNP1 (B) and assessed for infectivity on A549 cells. Data are the mean of the percent infectivity compared to control cells infected with each virus in the absence of defensin for at least three independent experiments ± SD. The upper limit for quantification of this assay is 200%. […]
Prior to use in this assay, each virus stock was titrated on A549 cells. […] In parallel, wells were infected with two-fold serial dilutions of each virus to establish a standard curve for quantification with an upper limit of 200%. […] Total well fluorescence above background was quantified with ImageJ software. For each virus, samples were quantified by nonlinear regression against the standard curve using Prism software (GraphPad Software, Inc., La Jolla, CA).

Ad5.eGFP = Ad5.eGFP infection, eGFP-positive cells by flow cytometry; format: cell-based, human adenovirus; settings: 15 µM defensin, percent eGFP positive cells vs. no defensin, at least three independent experiments
Source text: To gain further insight into the defensin-HAdV interaction, we assessed the requirement for two conserved structural elements on the anti-AdV activity of HD5. All defensins have three disulfide bonds (Figure 3A). […] The antibacterial properties of defensins, which are dependent upon protein-lipid interactions, are not uniformly conformation dependent [27]–[29]. […] In contrast, defensin-related chemokine activity, which relies on protein-protein interactions, is dependent on defensin conformation. We hypothesized that the defensin-capsid interaction for sensitive serotypes would likely be dependent upon defensin conformation, as this would be more typical for protein-protein interactions. […]
Figure 3 HD5 antiviral activity is structure dependent. […] C) Binding of Alexa Fluor 488-labeled HAdV-5 to cells was assessed after incubation with or without 20 µM HD5 or HD5-Abu and in competition with 100 nM 5FK or 16 FK. Data are the mean fold increase in geometric mean fluorescence compared to cells alone and are of at least 10,000 cells from each of three independent experiments ± SD.
To test the activity of HD5 derivates, Ad5.eGFP was incubated with 15 µM of HD5, HD5-Abu, or HD5-E14Q. Infectivity was assessed by enumerating eGFP-positive cells by flow cytometry as described.

19cF = experiment: Virus-defensin binding assay, 19cF; design: species or system human adenovirus; settings: studies equivalent to Figure 2B, data not shown
Protocol: (§1) We then combined the GYAR substitution with the PB substitution in a single construct (PB/GYAR).
To measure HD5 binding to HAdV-5 and -51, HD5 was serially diluted in PBS and mixed with 5 µg purified virus. After 1 h incubation on ice, one half of each sample was separated by ultracentrifugation [209,000×g (avg.) for 2 hrs at 4°C] on a discontinuous gradient consisting of 300 µl of 30% nycodenz and 200 µl of 80% nycodenz in 50 mM NaCl, 20 mM HEPES pH 7.4 using an SW55ti rotor with adaptors (Beckman Coulter, Inc.). The visible virus band was collected. The other half of each sample was used to make a standard curve for quantification. All samples were boiled in reducing loading buffer and separated using a 16% PAGEgel (Expedeon, Inc., San Diego, CA) or 10–20% Tris-Tricine gel (Bio-Rad, Hercules, CA). The gels were stained with Deep Purple (GE Healthcare) and imaged on a Typhoon Trio. Virus bands were quantified using ImageQuant NT software (GE Healthcare). The amount of HD5 in each sample was normalized to protein V and hexon. The amount of HD5 in the centrifuged samples was then quantified against the standard curve using Prism software. Affinity and stoichiometry were estimated from the average data of at least three independent experiments using Prism software.

[1] = tested on: HAdV-5/HAdV-19c chimeric viruses; experiment: FACS-based infection assay of virus chimeras at 100-fold lower moi; format: cell-based, human adenovirus; settings: data not shown
Source text: as §1

HAdV-5 [2] = settings: ref [13], cited from earlier work
HAdV-5 [3] = settings: ref [13], cited from earlier work; remark: listed apart in the source
Protocol: In order to determine the receptor-dependence of this effect, we pre-incubated cells with recombinant fiber knob from HAdV-5 (5FK) to block receptor (CAR) interactions and measured cell binding of fluorescently labeled HAdV-5 that was pre-incubated with or without HD5 or HD5-Abu (Figure 3C). Cells incubated with fiber knob from HAdV-16 (16FK), which binds CD46, served as a control. […] Therefore, we considered which of the multiple binding sites visualized by cryoEM might lead to enhanced virion stability. We reasoned that we might find a negatively charged region o ...

B1: HD5: human alpha-defensin; synthetic, obtained from Peptides International; three disulfide bonds (PDB 1ZMP) (peptide, UniProt Q01523 20-94, looked up)
Defensin alpha 5: ESLQERADEATTQKQSGEDNQDLAISFAGNGLSALRTSGSQARATCYCRTGRCATRESLSGVCEISGRLYRLCCR
modifications: Defensin-5
sensitivity to neutralization (infectivity) (HAdV species B1): sensitive
antiviral activity against Ad5.eGFP (Ad5.eGFP): only correctly folded HD5 has antiviral activity
amount of HD5 bound compared to HAdV-5 (19cF): did not detect a reduction in the amount of HD5 bound; also recorded: did not result in a noticeable reduction in overall HD5 binding
sensitivity phenotype of chimeras in FACS-based assay [1]: Equivalent results
inhibition of HAdV-5 infection (HAdV-5 [2]; low micromolar concentrations): significantly inhibit HAdV-5 infection at low micromolar concentrations
productive infection by HAdV-5 (HAdV-5 [2]): almost complete block to productive infection
IC50 (HAdV-5 [2]; read-out: IC50 for HAdV-5 infection): 3 to 4 µM
effect on HAdV-5 entry into host cells (HAdV-5 [3]; [36]): does not prevent HAdV-5 from entering host cells
binding of HAdV-5 to cells (HAdV-5 [3]): enhances binding of HAdV-5 to cells
